The target in test [1] is T1, recombinant human IGF-2 (human).
T1 construct: human insulin-like growth factor 2, recombinant; also called rhIGF-2; hIGF-2; source: bought: Sigma-Aldrich
The test can be described thus: SPR; Biacore T200, competition in solution: 5 nM hIGF-1 or hIGF-2 incubated 1 h with 0.12-500 nM IGF-TRAP, injected over about 4000 RU MEDI-573 amine-coupled to a CM-5 chip; free ligand read 10 s after end of injection; PBS 0.05% Tween 20, 25 °C. The following applies: both partners purified. Background: SPR reads the build-up and loss of mass on a sensor chip optically.

In test [2] the target is T2, recombinant human IGF-1 (Homo sapiens, UniProt P05019).
T2 construct: human insulin-like growth factor 1, recombinant; also called rhIGF-1; hIGF-1; source: bought: Sigma-Aldrich
The description is as above. The settings on record: both partners purified.

T2 sequence (P05019 49-118): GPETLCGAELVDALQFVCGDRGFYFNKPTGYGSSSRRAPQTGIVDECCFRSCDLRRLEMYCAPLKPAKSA

B1: dusigitumab (MEDI-573) (antibody, V domains shown)
VH: QVQLVQSGAEVKKPGASVKVSCKASGYTFTSYDINWVRQATGQGLEWMGWMNPNSGNTGYAQKFQGRVTMTRNTSISTAYMELSSLRSEDTAVYYCARDPYYYYYGMDVWGQGTTVTVSS
VL: QSVLTQPPSVSAAPGQKVTISCSGSSSNIENNHVSWYQQLPGTAPKLLIYDNNKRPSGIPDRFSGSKSGTSATLGITGLQTGDEADYYCETWDTSLSAGRVFGGGTKLTVL
With B1, the binding result in test [1] and in test [2] was “binds” each time.

These data come from paper PMC6255772, “Enhanced anti-metastatic bioactivity of an IGF-TRAP re-engineered to improve physicochemical properties” (Scientific Reports, 2018).
